We go through one molecule from paper PMC3962104.

The target of the assay is T1, S. cerevisiae Ump1, C-terminally 6His-tagged (wild type) (S. cerevisiae), P38293.
T1 chain: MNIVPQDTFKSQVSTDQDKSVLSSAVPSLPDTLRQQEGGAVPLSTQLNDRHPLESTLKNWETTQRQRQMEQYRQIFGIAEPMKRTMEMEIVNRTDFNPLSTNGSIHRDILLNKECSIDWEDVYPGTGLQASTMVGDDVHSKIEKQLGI
As to the kind of experiment: non-reducing SDS-PAGE; ion-exchange peak fractions loaded in sample buffer without (-) or with (+) 10 mM DTT, 15% SDS-PAGE, Coomassie Blue; the 36 kDa species is seen when no reducing agent is added. As to conditions: remark: other sources report otherwise.

B1: S. cerevisiae Ump1, C-terminally 6His-tagged (wild type), P38293 1-148 (natural protein)
chain: MNIVPQDTFKSQVSTDQDKSVLSSAVPSLPDTLRQQEGGAVPLSTQLNDRHPLESTLKNWETTQRQRQMEQYRQIFGIAEPMKRTMEMEIVNRTDFNPLSTNGSIHRDILLNKECSIDWEDVYPGTGLQASTMVGDDVHSKIEKQLGI
As a reminder, the stoichiometry N is a count of units in the complex or per binding partner. Turning to B1, the stoichiometry N is 2.
